Test results published in publication PMC5469476.

Legend:
[1] = target: human glucagon-like peptide-1 receptor (GLP1R) with C-terminal 1D4 epitope, purified in nanodiscs (GLP1R-ND) (human) (UniProt P43220)
[2] = target: human glucagon-like peptide-1 receptor (GLP1R) with C-terminal 1D4 epitope, purified in nanodiscs (GLP1R-ND) (human) (UniProt P43220); assay: fluorescence polarisation; fluorescence anisotropy; 50 nM FAM-labeled peptide with 0 to 400 nM freshly prepared GLP1R-ND (or empty-ND); 20 mM Tris-HCl pH 7.4, 150 mM NaCl, EDTA, 3 mM MgCl2; room temperature; single-site binding model; three independent receptor preparations
[3] = target: human glucagon-like peptide-1 receptor (GLP1R) with C-terminal 1D4 epitope, purified in nanodiscs (GLP1R-ND) (human) (UniProt P43220); assay: fluorescence polarisation

UniProt P43220, sequence (P43220 24-463): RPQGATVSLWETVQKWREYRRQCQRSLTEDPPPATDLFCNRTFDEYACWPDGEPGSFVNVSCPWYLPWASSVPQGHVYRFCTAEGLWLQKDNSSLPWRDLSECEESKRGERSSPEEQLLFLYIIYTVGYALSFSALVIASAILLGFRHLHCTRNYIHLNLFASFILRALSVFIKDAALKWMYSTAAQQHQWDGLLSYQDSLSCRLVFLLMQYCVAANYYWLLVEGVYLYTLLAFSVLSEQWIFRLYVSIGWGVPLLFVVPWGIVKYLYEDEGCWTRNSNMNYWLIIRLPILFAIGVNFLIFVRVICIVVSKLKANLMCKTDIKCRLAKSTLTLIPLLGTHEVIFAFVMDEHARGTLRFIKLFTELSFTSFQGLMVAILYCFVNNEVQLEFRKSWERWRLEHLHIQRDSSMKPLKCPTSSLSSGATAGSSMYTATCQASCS

Row | EC50 of cell-based cAMP assay (receptor on cells, details in S1 Supporting Information) [1] | Kd [2] | Substance | Kd [3]
1 | 1.18 nM | 284 nM | FAM-labeled GLP-1-(7-37) (E21K, 5(6)-carboxyfluorescein on the lysine) (peptide) | –
2 | – | – | FAM-labeled exendin-4 (L21K, 5(6)-carboxyfluorescein on the lysine) (peptide) | 178 nM
